Measured values taken from the supplement of paper PMC9732359.
± gives the uncertainty stated by the source.

Test: protein stability index of a GFP-peptide fusion (yeast GPS) (PSI 1-4); higher = more stable; sorted into four equal gates, so the index is relative within each strain
How it was run: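 The protein stability index of a peptide was calculated by multiplying its read frequency in each gate by that gate's number and adding the products. The peptides were tiled 17-residue stretches of yeast proteins, fused downstream of GFP on a Cherry-expressing plasmid and carried in yeast as a pooled library. Mid-log cultures in leucine-free medium were sorted into four equal gates by GFP/Cherry ratio, and each gate's plasmids were PCR-amplified and Illumina-sequenced.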

Sequence | protein stability index (doa10∆) | protein stability index (pdr5∆) | protein stability index (san1∆) | protein stability index (ubr1∆)
PKYRDNLATWYHSAGGR [SSN3] | 2.95 ± 0.066 | 3.28 ± 0.08 | 3.1 ± 0.059 | 2.99 ± 0.059
NSSNLSYNNTGISDDEN [RRP4] | 2.53 ± 0.07 | 2.87 ± 0.064 | 2.87 ± 0.049 | 2.79 ± 0.06
SSKTRNVLNRIQELEDQ [ITC1] | 1.35 ± 0.088 | 1.16 ± 0.051 |  | 1.18 ± 0.058
SLNEKNALHTERLHELK [SMC1] | 3.36 ± 0.061 | 3.11 ± 0.065 | 2.89 ± 0.067 | 2.81 ± 0.054
DFHFSTDRITRLFIKPG [BRN1] | 2.33 ± 0.058 | 2.6 ± 0.046 | 2.16 ± 0.089 | 2.67 ± 0.048
YVFNARPDGVHVINVGK [RPS0A] |  | 2.78 ± 0.24 |  | 2.55 ± 0.11
ISLAVEGEPVNSPNYFV [COR1] | 3.09 ± 0.14 | 2.43 ± 0.094 | 2.83 ± 0.12 | 1.99 ± 0.065
HHFTCEITGTSCLTFFQ [ITC1] | 1.9 ± 0.05 | 2.2 ± 0.057 | 2.04 ± 0.078 | 2.07 ± 0.047
IIESHLIQLQNIFKAEM [CSN9] | 2.75 ± 0.1 | 3.14 ± 0.11 | 2.85 ± 0.088 | 2.74 ± 0.073
VIMALMLMSKIGDVDGL [POP5] | 1.49 ± 0.044 | 2 ± 0.053 | 1.84 ± 0.1 | 1.97 ± 0.047
TRIQYVDFACCTNLTNR [GRR1] | 2.82 ± 0.057 | 2.6 ± 0.069 | 2.58 ± 0.1 | 2.36 ± 0.049
EETPSKTNKISILKRHS [NUT1] |  |  |  | 3.1 ± 0.17
VCDLALRFGEGASGEER [PUP2] | 2.75 ± 0.2 | 3.4 ± 0.2 |  | 3.1 ± 0.21
IITQYVFESLEINNLIQ [ARP9] | 3.2 ± 0.098 | 2.93 ± 0.081 | 2.8 ± 0.12 | 2.96 ± 0.1
QRTATLCLEKLMCLSSK [YCS4] | 1.6 ± 0.049 | 2.29 ± 0.075 | 2.49 ± 0.11 | 1.78 ± 0.057
YYNPQAGTKITICIELK [RGR1] | 2.16 ± 0.13 | 2.24 ± 0.23 | 2.1 ± 0.13 | 2.48 ± 0.1
VTNFNSTNEDQNNSKHT [SRB5] | 3.18 ± 0.16 | 2.44 ± 0.15 | 3.06 ± 0.18 | 2.71 ± 0.076
SAKMILLSDPTITIKSY [PRP8] | 2.23 ± 0.078 | 1.91 ± 0.09 | 3.1 ± 0.099 | 2.92 ± 0.069
VQNLRSWETKLKQNILE [CSN9] | 1.83 ± 0.077 | 2.04 ± 0.094 | 2.3 ± 0.11 | 1.82 ± 0.083
TNYYLTTARNDLGVVFA [CSL4] | 2.04 ± 0.066 | 2.39 ± 0.078 | 2.51 ± 0.075 | 2.82 ± 0.072
ANIFRIHSKSMSVERGI [RPT1] | 3.16 ± 0.11 | 3.01 ± 0.14 | 3.18 ± 0.13 | 2.9 ± 0.13
IHFREHQSELIIKQTVH [YMR129W/POM152] | 2.46 ± 0.072 | 2.85 ± 0.069 | 2.48 ± 0.097 | 2.21 ± 0.053
NLTYYNEKLECISLGST [ITC1] | 2.2 ± 0.061 | 2.39 ± 0.044 | 2.32 ± 0.044 | 2.45 ± 0.04
WPIVQKTYEPVLNEDDL [RPN5] | 2.32 ± 0.068 | 2.59 ± 0.11 | 1.85 ± 0.098 | 2.27 ± 0.071
KTVQSMTQRAIQSAESI [SWI3] | 2.5 ± 0.11 | 1.8 ± 0.079 | 2.53 ± 0.13 | 1.82 ± 0.12
EISLKAHCILGIGGDHA [RPC40] | 1.16 ± 0.18 | 1.3 ± 0.16 | 1.28 ± 0.3 | 
IVVVIEIITSLSMRFQR [SRB8] | 2.5 ± 0.12 | 2.71 ± 0.092 | 2.18 ± 0.084 | 2.06 ± 0.087

Sequence | protein stability index (doa10∆) | protein stability index (pdr5∆) | protein stability index (san1∆) | protein stability index (ubr1∆)
DRRKARKAYFTAPSSQR [RPL26A] | 2.59 ± 0.069 | 2.49 ± 0.091 | 2.76 ± 0.057 | 2.59 ± 0.068
ASSPIILEEGSSGMGAF [RPN10] | 3.04 ± 0.079 | 3.04 ± 0.083 | 2.99 ± 0.089 | 3.14 ± 0.059
QMDQQLQYTALTGSPNN [ARP7] | 2.91 ± 0.11 | 3.36 ± 0.096 | 3.33 ± 0.071 | 3.13 ± 0.063
AQSRNVEIEKRILKLGT [YGR119C/NUP57] | 3.33 ± 0.082 | 3.15 ± 0.071 | 3.33 ± 0.077 | 3.34 ± 0.078
NNNNSNNHNMRNNSNNK [SWI1] | 3.054 ± 0.029 | 2.95 ± 0.031 | 2.762 ± 0.026 | 2.764 ± 0.021
EQLSEEDAKLKTDLELL [RPN1] | 3.13 ± 0.15 | 3.25 ± 0.069 | 3.25 ± 0.1 | 3 ± 0.13
DYSRKQLGYGKFLILNE [NUT1] | 2.97 ± 0.2 | 2.31 ± 0.14 |  | 3.18 ± 0.22
AETIILSSAGKNSSVSS [SRB5] | 1.65 ± 0.063 | 2.17 ± 0.051 | 2.06 ± 0.083 | 1.89 ± 0.075
KKEANLFPEQQTKEIKT [RPL6B] | 2.62 ± 0.08 | 3.25 ± 0.074 | 2.56 ± 0.082 | 3.23 ± 0.076
LGDKELWPVAIGLIALS [YJR042W/NUP85] | 1.57 ± 0.17 | 1.65 ± 0.15 | 1.64 ± 0.27 | 1.73 ± 0.16
QNRRLAFEELEGSWDRG [PRP8] | 2.91 ± 0.17 | 3.31 ± 0.17 | 3.24 ± 0.15 | 3.31 ± 0.16
KLAFGLTKLNEDDLVGV [TAF14] | 2.94 ± 0.092 | 3.15 ± 0.072 | 3.25 ± 0.054 | 3 ± 0.057
RVNLSENTPEPDLPALE [SMC4] | 2.26 ± 0.091 | 2.32 ± 0.074 | 3.1 ± 0.086 | 2.83 ± 0.11
MNRPGARVTRRKRCKGT [RPL11A] | 3.05 ± 0.21 | 3.25 ± 0.13 | 3.46 ± 0.081 | 3.15 ± 0.13
ISAPSMEDEILSLGMDF [BRN1] | 3.15 ± 0.057 | 3.23 ± 0.05 | 3.19 ± 0.05 | 3.12 ± 0.044
HGLILELQKIWQIEEAG [SRB5] | 2.86 ± 0.094 | 2.93 ± 0.091 | 3.19 ± 0.048 | 3.14 ± 0.043
EGTPINNVYFAAGALFV [RPN14] | 2.2 ± 0.091 | 2.63 ± 0.13 | 2.72 ± 0.12 | 2.45 ± 0.11
HICGICGLMTVIAKLNH [RPB2] | 1.65 ± 0.077 | 1.33 ± 0.08 | 1.23 ± 0.14 | 1.43 ± 0.066
GGSATARHKKKVENLDY [YML031W/NDC1] | 3.4 ± 0.14 | 3.38 ± 0.14 | 3.06 ± 0.12 | 3.62 ± 0.29
VVIEKRRKKILNEIELD [GRR1] | 2.03 ± 0.14 | 2.77 ± 0.1 | 2.05 ± 0.17 | 2.96 ± 0.054
FITFSLDDWISIGYETE [IRR1] | 2.56 ± 0.078 | 2.61 ± 0.088 | 2.65 ± 0.084 | 2.6 ± 0.071
MDVDQFDFLDDGTAQLS [YJR042W/NUP85] | 2.46 ± 0.079 | 2.98 ± 0.075 | 3.32 ± 0.068 | 2.53 ± 0.063
RFKVVKVSGVSLLALWK [RPS23A] | 2.55 ± 0.22 | 1.59 ± 0.14 | 1.71 ± 0.14 | 1.81 ± 0.14
YVESDEDDTQIVTGNLV [IRR1] | 3.47 ± 0.15 | 3.47 ± 0.12 | 3.08 ± 0.08 | 3.26 ± 0.076
AELKLAGEFGLKNKREI [RPS9B] | 3.08 ± 0.11 | 3.21 ± 0.15 | 3.2 ± 0.18 | 3.21 ± 0.12
MDSIIPAGVKLDDLQVI [PGD1] | 2.5 ± 0.093 | 3.05 ± 0.091 | 2.57 ± 0.061 | 2.52 ± 0.056
QQRIREIGLLPEDALVN [SMC3] |  |  | 3.27 ± 0.2 | 3.25 ± 0.13
